What was measured:
EL4Cter* peptide = type: binding; conditions: EL4Cter* 35 µM; increasing concentration of Z^x95; mean of three independent measurements
MtPMT [1] = conditions: in vivo (M. smegmatis cell assay); cited from earlier work
PhoA = type: cell-based, E. coli
FasC^His = type: cell-based, M. smegmatis
MtPMT [2] = type: cell-based; conditions: MtPMT mutant expressed in M. smegmatis ΔMsPMT; ELLA, relative to WT (100%) and No PMT (0%)

Molecule: Cc1cc(-n2c(C)cc(/C=C/C(=O)N3CCCC3c3cccs3)c2C)no1 (stereo not drawn) [Z^x95, (2E)-3-[2,5-dimethyl-1-(5-methyl-1,2-oxazol-3-yl)-1H-pyrrol-3-yl]-1-[2-(thiophen-2-yl)pyrrolidin-1-yl]prop-2-en-1-one]
- effect on thermal denaturation curves of EL4Cter* (EL4Cter* peptide): dose-dependent deviation of EL4Cter* thermal denaturation curves
- effect on FasC mannosylation in vivo (MtPMT [1]): reduce FasC mannosylation in vivo

B1: MtPMT: M. tuberculosis protein-O-mannosyltransferase, wild type (protein, UniProt P9WN05 1-522, looked up)
Polyprenol-phosphate-mannose-- …: MTARPPESCVLAKDRPEEPVVPVVSPGPLVPVADFGPLDRLRGWIVTGLITLLATVTRFLNLGSLTDAGTPIFDEKHYAPQAWQVLNNHGVEDNPGYGLVVHPPVGKQLIAIGEAIFGYNGFGWRFTGALLGVVLVALVVRIVRRISRSTLVGAIAGVLLICDGVSFVTARTALLDGFLTFFVVAAFGALIVDRDQVRERMHIALLAGRSAATVWGPRVGVRWWRFGAGVLLGLACATKWSGVYFVLFFGAMALAFDVAARRQYQVQRPWLGTVRRDVLPSGYALGLIPFAVYLATYAPWFASETAIDRHAVGQAVGRNSVVPLPDAVRSLWHYTAKAFHFHAGLTNSAGNYHPWESKPWTWPMSLRPVLYAIDQQDVAGCGAQSCVKAEMLVGTPAMWWLAVPVLAYAGWRMFVRRDWRYAVVLVGYCAGWLPWFADIDRQMYFFYAATMAPFLVMGISLVLGDILYHPGQGSERRTLGLIVVCCYVALVVTNFAWLYPVLTGLPISQQTWNLEIWLPSWR
- phosphatase activity on solid medium (chromogenic substrate) (PhoA): remained uncolored
- number of FasC glycosylation states (FasC^His): 18

B2: W362A (protein, UniProt P9WN05 1-522, looked up, variant W362A)
Polyprenol-phosphate-mannose-- …: MTARPPESCVLAKDRPEEPVVPVVSPGPLVPVADFGPLDRLRGWIVTGLITLLATVTRFLNLGSLTDAGTPIFDEKHYAPQAWQVLNNHGVEDNPGYGLVVHPPVGKQLIAIGEAIFGYNGFGWRFTGALLGVVLVALVVRIVRRISRSTLVGAIAGVLLICDGVSFVTARTALLDGFLTFFVVAAFGALIVDRDQVRERMHIALLAGRSAATVWGPRVGVRWWRFGAGVLLGLACATKWSGVYFVLFFGAMALAFDVAARRQYQVQRPWLGTVRRDVLPSGYALGLIPFAVYLATYAPWFASETAIDRHAVGQAVGRNSVVPLPDAVRSLWHYTAKAFHFHAGLTNSAGNYHPWESKPWTAPMSLRPVLYAIDQQDVAGCGAQSCVKAEMLVGTPAMWWLAVPVLAYAGWRMFVRRDWRYAVVLVGYCAGWLPWFADIDRQMYFFYAATMAPFLVMGISLVLGDILYHPGQGSERRTLGLIVVCCYVALVVTNFAWLYPVLTGLPISQQTWNLEIWLPSWR
- FasC^His mannosylation / MtPMT enzymatic activity (ConA binding) (MtPMT [2]): absence of Fasc^His mannosylation
- reduction of expression of mutated enzyme (PhoA activity of PhoA fusion) (PhoA): about 50%
